# Numbered stars: 1 amine (or outer) side, 2 acyl side, 3 side chain; on linkers, the order of the positions; unused ones are H or OH. Bridge positions count the residues as written; N and C are the ends. Side chains are listed from the residue outwards. Ends that are not written are not given here. * marks the point of attachment. C20 diacid = O=C(O)CCCCCCCCCCCCCCCCCCC(=O)*; γGlu = O=C(O)[C@H](CCC(=O)[*:2])N[*:1]
# T1: human amylin receptor (amylin 3(a) receptor: human calcitonin receptor with RAMP-3) (human, UniProt P30988 25-474; O60896 24-148)
# T1 construct: whole, on cells; also called hAmylin-R; hAmylinR
# T1 sequence (looked up) 1: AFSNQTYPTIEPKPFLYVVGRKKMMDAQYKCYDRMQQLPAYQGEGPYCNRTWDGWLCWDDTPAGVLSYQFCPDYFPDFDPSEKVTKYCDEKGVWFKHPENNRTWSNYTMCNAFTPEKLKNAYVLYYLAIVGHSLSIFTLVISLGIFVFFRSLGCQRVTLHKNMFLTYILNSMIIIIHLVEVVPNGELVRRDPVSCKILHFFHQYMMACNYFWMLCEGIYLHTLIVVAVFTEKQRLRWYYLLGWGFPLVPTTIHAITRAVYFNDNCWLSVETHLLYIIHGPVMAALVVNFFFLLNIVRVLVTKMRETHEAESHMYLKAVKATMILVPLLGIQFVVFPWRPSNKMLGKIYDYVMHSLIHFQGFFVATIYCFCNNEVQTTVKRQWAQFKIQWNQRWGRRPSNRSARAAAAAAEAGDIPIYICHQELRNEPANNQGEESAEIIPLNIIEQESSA
# T1 sequence (looked up) 2: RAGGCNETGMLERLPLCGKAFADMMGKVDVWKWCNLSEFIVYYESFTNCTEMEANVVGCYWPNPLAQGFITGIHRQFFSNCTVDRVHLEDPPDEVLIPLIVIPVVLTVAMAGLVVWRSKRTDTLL
# B1: N^ε1-[(4S)-4-carboxy-4-(19-carboxynonadecanoylamino)butanoyl]-[His14,Arg17,Pro21,Pro27,His35]-h-amylin (peptide)
# peptide: K([γGlu-C20 diacid])CNTATCATQRLAHFLRHSSPNFGAIPSSTNVGSHTY-NH2
# modifications: disulfide 2-7; N-terminus assumed
# SMILES: CC[C@H](C)[C@H](NC(=O)[C@H](C)NC(=O)CNC(=O)[C@H](Cc1ccccc1)NC(=O)[C@H](CC(N)=O)NC(=O)[C@@H]1CCCN1C(=O)[C@H](CO)NC(=O)[C@H](CO)NC(=O)[C@H](Cc1c[nH]cn1)NC(=O)[C@H](CCCNC(=N)N)NC(=O)[C@H](CC(C)C)NC(=O)[C@H](Cc1ccccc1)NC(=O)[C@H](Cc1c[nH]cn1)NC(=O)[C@H](C)NC(=O)[C@H](CC(C)C)NC(=O)[C@H](CCCNC(=N)N)NC(=O)[C@H](CCC(N)=O)NC(=O)[C@@H](NC(=O)[C@H](C)NC(=O)[C@@H]1CSSC[C@H](NC(=O)[C@@H](N)CCCCNC(=O)CC[C@H](NC(=O)CCCCCCCCCCCCCCCCCCC(=O)O)C(=O)O)C(=O)N[C@@H](CC(N)=O)C(=O)N[C@@H]([C@@H](C)O)C(=O)N[C@@H](C)C(=O)N[C@@H]([C@@H](C)O)C(=O)N1)[C@@H](C)O)C(=O)N1CCC[C@H]1C(=O)N[C@@H](CO)C(=O)N[C@@H](CO)C(=O)N[C@H](C(=O)N[C@@H](CC(N)=O)C(=O)N[C@H](C(=O)NCC(=O)N[C@@H](CO)C(=O)N[C@@H](Cc1c[nH]cn1)C(=O)N[C@H](C(=O)N[C@@H](Cc1ccc(O)cc1)C(N)=O)[C@@H](C)O)C(C)C)[C@@H](C)O
# notes: also called 66; compound 66
# B2: N^ε1-[(4S)-4-carboxy-4-(19-carboxynonadecanoylamino)butanoyl]-[His14,Arg17,Pro21,Pro27,Pro31]-h-amylin (peptide)
# peptide: K([γGlu-C20 diacid])CNTATCATQRLAHFLRHSSPNFGAIPSSTPVGSNTY-NH2
# modifications: disulfide 2-7; N-terminus assumed
# SMILES: CC[C@H](C)[C@H](NC(=O)[C@H](C)NC(=O)CNC(=O)[C@H](Cc1ccccc1)NC(=O)[C@H](CC(N)=O)NC(=O)[C@@H]1CCCN1C(=O)[C@H](CO)NC(=O)[C@H](CO)NC(=O)[C@H](Cc1c[nH]cn1)NC(=O)[C@H](CCCNC(=N)N)NC(=O)[C@H](CC(C)C)NC(=O)[C@H](Cc1ccccc1)NC(=O)[C@H](Cc1c[nH]cn1)NC(=O)[C@H](C)NC(=O)[C@H](CC(C)C)NC(=O)[C@H](CCCNC(=N)N)NC(=O)[C@H](CCC(N)=O)NC(=O)[C@@H](NC(=O)[C@H](C)NC(=O)[C@@H]1CSSC[C@H](NC(=O)[C@@H](N)CCCCNC(=O)CC[C@H](NC(=O)CCCCCCCCCCCCCCCCCCC(=O)O)C(=O)O)C(=O)N[C@@H](CC(N)=O)C(=O)N[C@@H]([C@@H](C)O)C(=O)N[C@@H](C)C(=O)N[C@@H]([C@@H](C)O)C(=O)N1)[C@@H](C)O)C(=O)N1CCC[C@H]1C(=O)N[C@@H](CO)C(=O)N[C@@H](CO)C(=O)N[C@H](C(=O)N1CCC[C@H]1C(=O)N[C@H](C(=O)NCC(=O)N[C@@H](CO)C(=O)N[C@@H](CC(N)=O)C(=O)N[C@H](C(=O)N[C@@H](Cc1ccc(O)cc1)C(N)=O)[C@@H](C)O)C(C)C)[C@@H](C)O
# notes: also called 62; compound 62
# B3: N^ε1-[(4S)-4-carboxy-4-[[(4S)-4-carboxy-4-(19-carboxynonadecanoylamino)butanoyl]amino]butanoyl]-[Asp14,Arg17,Pro21,Pro26,Asp35]-h-amylin (peptide)
# peptide: K([γGlu-γGlu-C20 diacid])CNTATCATQRLADFLRHSSPNFGAPLSSTNVGSDTY-NH2
# modifications: disulfide 2-7; N-terminus assumed
# SMILES: CC(C)C[C@H](NC(=O)[C@H](CCCNC(=N)N)NC(=O)[C@H](CCC(N)=O)NC(=O)[C@@H](NC(=O)[C@H](C)NC(=O)[C@@H]1CSSC[C@H](NC(=O)[C@@H](N)CCCCNC(=O)CC[C@H](NC(=O)CC[C@H](NC(=O)CCCCCCCCCCCCCCCCCCC(=O)O)C(=O)O)C(=O)O)C(=O)N[C@@H](CC(N)=O)C(=O)N[C@@H]([C@@H](C)O)C(=O)N[C@@H](C)C(=O)N[C@@H]([C@@H](C)O)C(=O)N1)[C@@H](C)O)C(=O)N[C@@H](C)C(=O)N[C@@H](CC(=O)O)C(=O)N[C@@H](Cc1ccccc1)C(=O)N[C@@H](CC(C)C)C(=O)N[C@@H](CCCNC(=N)N)C(=O)N[C@@H](Cc1c[nH]cn1)C(=O)N[C@@H](CO)C(=O)N[C@@H](CO)C(=O)N1CCC[C@H]1C(=O)N[C@@H](CC(N)=O)C(=O)N[C@@H](Cc1ccccc1)C(=O)NCC(=O)N[C@@H](C)C(=O)N1CCC[C@H]1C(=O)N[C@@H](CC(C)C)C(=O)N[C@@H](CO)C(=O)N[C@@H](CO)C(=O)N[C@H](C(=O)N[C@@H](CC(N)=O)C(=O)N[C@H](C(=O)NCC(=O)N[C@@H](CO)C(=O)N[C@@H](CC(=O)O)C(=O)N[C@H](C(=O)N[C@@H](Cc1ccc(O)cc1)C(N)=O)[C@@H](C)O)C(C)C)[C@@H](C)O
# notes: also called compound 1
# B4: N^ε1-[(4S)-4-carboxy-4-[[(4S)-4-carboxy-4-(19-carboxynonadecanoylamino)butanoyl]amino]butanoyl]-[Arg17,Pro21,Pro27,His34]-h-amylin (peptide)
# peptide: K([γGlu-γGlu-C20 diacid])CNTATCATQRLANFLRHSSPNFGAIPSSTNVGHNTY-NH2
# modifications: disulfide 2-7; N-terminus assumed
# SMILES: CC[C@H](C)[C@H](NC(=O)[C@H](C)NC(=O)CNC(=O)[C@H](Cc1ccccc1)NC(=O)[C@H](CC(N)=O)NC(=O)[C@@H]1CCCN1C(=O)[C@H](CO)NC(=O)[C@H](CO)NC(=O)[C@H](Cc1c[nH]cn1)NC(=O)[C@H](CCCNC(=N)N)NC(=O)[C@H](CC(C)C)NC(=O)[C@H](Cc1ccccc1)NC(=O)[C@H](CC(N)=O)NC(=O)[C@H](C)NC(=O)[C@H](CC(C)C)NC(=O)[C@H](CCCNC(=N)N)NC(=O)[C@H](CCC(N)=O)NC(=O)[C@@H](NC(=O)[C@H](C)NC(=O)[C@@H]1CSSC[C@H](NC(=O)[C@@H](N)CCCCNC(=O)CC[C@H](NC(=O)CC[C@H](NC(=O)CCCCCCCCCCCCCCCCCCC(=O)O)C(=O)O)C(=O)O)C(=O)N[C@@H](CC(N)=O)C(=O)N[C@@H]([C@@H](C)O)C(=O)N[C@@H](C)C(=O)N[C@@H]([C@@H](C)O)C(=O)N1)[C@@H](C)O)C(=O)N1CCC[C@H]1C(=O)N[C@@H](CO)C(=O)N[C@@H](CO)C(=O)N[C@H](C(=O)N[C@@H](CC(N)=O)C(=O)N[C@H](C(=O)NCC(=O)N[C@@H](Cc1c[nH]cn1)C(=O)N[C@@H](CC(N)=O)C(=O)N[C@H](C(=O)N[C@@H](Cc1ccc(O)cc1)C(N)=O)[C@@H](C)O)C(C)C)[C@@H](C)O
# notes: also called 86; compound 86
# B5: N^ε1-[(4S)-4-carboxy-4-[[(4S)-4-carboxy-4-(19-carboxynonadecanoylamino)butanoyl]amino]butanoyl]-[Asp14,Arg17,Pro21,Pro27,Arg35]-h-amylin (peptide)
# peptide: K([γGlu-γGlu-C20 diacid])CNTATCATQRLADFLRHSSPNFGAIPSSTNVGSRTY-NH2
# modifications: disulfide 2-7; N-terminus assumed
# SMILES: CC[C@H](C)[C@H](NC(=O)[C@H](C)NC(=O)CNC(=O)[C@H](Cc1ccccc1)NC(=O)[C@H](CC(N)=O)NC(=O)[C@@H]1CCCN1C(=O)[C@H](CO)NC(=O)[C@H](CO)NC(=O)[C@H](Cc1c[nH]cn1)NC(=O)[C@H](CCCNC(=N)N)NC(=O)[C@H](CC(C)C)NC(=O)[C@H](Cc1ccccc1)NC(=O)[C@H](CC(=O)O)NC(=O)[C@H](C)NC(=O)[C@H](CC(C)C)NC(=O)[C@H](CCCNC(=N)N)NC(=O)[C@H](CCC(N)=O)NC(=O)[C@@H](NC(=O)[C@H](C)NC(=O)[C@@H]1CSSC[C@H](NC(=O)[C@@H](N)CCCCNC(=O)CC[C@H](NC(=O)CC[C@H](NC(=O)CCCCCCCCCCCCCCCCCCC(=O)O)C(=O)O)C(=O)O)C(=O)N[C@@H](CC(N)=O)C(=O)N[C@@H]([C@@H](C)O)C(=O)N[C@@H](C)C(=O)N[C@@H]([C@@H](C)O)C(=O)N1)[C@@H](C)O)C(=O)N1CCC[C@H]1C(=O)N[C@@H](CO)C(=O)N[C@@H](CO)C(=O)N[C@H](C(=O)N[C@@H](CC(N)=O)C(=O)N[C@H](C(=O)NCC(=O)N[C@@H](CO)C(=O)N[C@@H](CCCNC(=N)N)C(=O)N[C@H](C(=O)N[C@@H](Cc1ccc(O)cc1)C(N)=O)[C@@H](C)O)C(C)C)[C@@H](C)O
# notes: also called 52; compound 52
# B6: N^ε1-[(4S)-4-carboxy-4-(19-carboxynonadecanoylamino)butanoyl]-[His14,Arg17,Pro21,Pro27]-h-amylin (peptide)
# peptide: K([γGlu-C20 diacid])CNTATCATQRLAHFLRHSSPNFGAIPSSTNVGSNTY-NH2
# modifications: disulfide 2-7; N-terminus assumed
# SMILES: CC[C@H](C)[C@H](NC(=O)[C@H](C)NC(=O)CNC(=O)[C@H](Cc1ccccc1)NC(=O)[C@H](CC(N)=O)NC(=O)[C@@H]1CCCN1C(=O)[C@H](CO)NC(=O)[C@H](CO)NC(=O)[C@H](Cc1c[nH]cn1)NC(=O)[C@H](CCCNC(=N)N)NC(=O)[C@H](CC(C)C)NC(=O)[C@H](Cc1ccccc1)NC(=O)[C@H](Cc1c[nH]cn1)NC(=O)[C@H](C)NC(=O)[C@H](CC(C)C)NC(=O)[C@H](CCCNC(=N)N)NC(=O)[C@H](CCC(N)=O)NC(=O)[C@@H](NC(=O)[C@H](C)NC(=O)[C@@H]1CSSC[C@H](NC(=O)[C@@H](N)CCCCNC(=O)CC[C@H](NC(=O)CCCCCCCCCCCCCCCCCCC(=O)O)C(=O)O)C(=O)N[C@@H](CC(N)=O)C(=O)N[C@@H]([C@@H](C)O)C(=O)N[C@@H](C)C(=O)N[C@@H]([C@@H](C)O)C(=O)N1)[C@@H](C)O)C(=O)N1CCC[C@H]1C(=O)N[C@@H](CO)C(=O)N[C@@H](CO)C(=O)N[C@H](C(=O)N[C@@H](CC(N)=O)C(=O)N[C@H](C(=O)NCC(=O)N[C@@H](CO)C(=O)N[C@@H](CC(N)=O)C(=O)N[C@H](C(=O)N[C@@H](Cc1ccc(O)cc1)C(N)=O)[C@@H](C)O)C(C)C)[C@@H](C)O
# notes: also called 70; compound 70
# Target: T1, human amylin receptor (amylin 3(a) …)
# Test: SPA displacement of 125I-rat amylin, hAmylin 3(a) receptor membranes
# In short: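 Cell membranes were prepared by homogenisation in Na-HEPES/EDTA buffer, pH 7.4, and stored at −80° C. They were then coupled to SPA beads at 35 ng/μL final and exposed to compounds in assay buffer containing CaCl2, MgCl₂, OA and Tween20. After 120 min at 25° C, plates were counted and IC₅₀ derived.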
row,Binder,IC50 [pM]
1,B1,396
2,B2,98
3,B3,1180
4,B4,833
5,B5,697
6,B6,169

# From US20140087995A1 (published 2014)
